How the values were obtained:
[1] = molecular target: GFP-tagged WT NuMA-tail II (aa 1868–2091) (human) (UniProt Q14980); test: ITC
[2] = molecular target: GFP-tagged WT NuMA-tail II (aa 1868–2091) (human) (UniProt Q14980); test: TIRF microscopy of GFP-tagged protein on immobilised microtubules
[3] = molecular target: NuMA-tail (1970–2091)—GFP (human) (UniProt Q14980); test: as above

Row | Substance | Kd [1] [µM] | fold reduction of the GFP signal of m1 on microtubules [2] [fold] | fold reduction of the microtubule binding of m17 [3] [fold]
1 | 1:1 stoichiometric mixture of full-length Importin-α and Importin-β (from UniProt P52292 1-529; Q14974 1-876) (complex) | 2.2 | 50 | 80
2 | Importin-α lacking the Importin-β binding (IBB) domain (aa 70–524), mouse (from UniProt P52293 70-524) (domain or fragment) | 0.25 | – | –

Reference: paper PMC5674899
